Tests used:
[1] = molecular target: T1, MCP-1 receptor B (CCR2B) (Homo sapiens, UniProt P41597); assay: hMCP-1 receptor binding assay (125I-MCP-1, CHO-CCR2B cell membranes); conditions: CHO-CCR2B membrane fragments
T1 construct: expressed in transfected cells; host or cells: CHO-K1 clone 7 (CHO-CCR2B), membrane fragments
T1 sequence (P41597 1-360 isoform P41597-2): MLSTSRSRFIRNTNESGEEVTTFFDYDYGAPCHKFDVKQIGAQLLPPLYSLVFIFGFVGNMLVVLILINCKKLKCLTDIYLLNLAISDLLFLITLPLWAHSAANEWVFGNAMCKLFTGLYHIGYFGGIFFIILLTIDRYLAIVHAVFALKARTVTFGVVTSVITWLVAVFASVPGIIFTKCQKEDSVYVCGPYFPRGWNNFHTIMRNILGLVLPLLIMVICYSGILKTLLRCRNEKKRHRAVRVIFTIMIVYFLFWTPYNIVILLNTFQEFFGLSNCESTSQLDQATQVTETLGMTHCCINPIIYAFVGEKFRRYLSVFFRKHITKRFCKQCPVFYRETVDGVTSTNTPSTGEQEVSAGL
Description: The MCP-1 receptor B (CCR2B) cDNA was cloned by PCR from THP-1 cell RNA using suitable oligonucleotide primers based on the published MCP-1 receptor sequences (Charo et al., 1994, Proc. Natl. Acad. Sci. USA, 91, 2752). The resulting PCR products were cloned into vector PCR-II™ (In Vitrogen, San Diego, Calif.). Error free CCR2B cDNA was subcloned as a Hind III-Not I fragment into the eukaryotic expression vector pCNA3 (In Vitrogen) to generate pCDNA3/CC-CKR2A and pCDNA3/CCR2B respectively.
Linearised pCDNA3/CCR2B DNA was transfected into CHO-K1 cells by calcium phosphate precipitation (Wigler et al., 1979, Cell, 16, 777). Transfected cells were selected by the addition of Geneticin Sulphate (G418, Gibco BRL) at 1 mg/ml, 24 hours after the cells had been transfected. Preparation of RNA and Northern blotting were carried out as described previously (Needham et al., 1995, Prot. Express. Purific., 6, 134). CHO-K1 clone 7 (CHO-CCR2B) was identified as the highest MCP-1 receptor B expresser.
CHO-CCR2B cells were grown in DMEM supplemented with 10% foetal calf serum, 2 mM glutamine, 1× Non-Essential Amino Acids, 1× Hypoxanthine and Thymidine Supplement and Penicillin-Streptomycin (at 50 μg streptomycin/ml, Gibco BRL). Membrane fragments were prepared using cell lysis/differential centrifugation methods as described previously (Siciliano et al., 1990, J. Biol. Chem, 265, 19658). […]

[2] = system: THP-1 cells; assay: MCP-1 mediated calcium flux in THP-1 cells; type: cell-based, human; conditions: stimulation of THP-1 cells with hMCP-1, FURA-2, approximate; read-out: EC50 of the rise in [Ca2+]i
Procedure: The human monocytic cell line THP-1 was grown in a synthetic cell structure medium RPMI 1640 supplemented with 10% foetal calf serum, 6 mM glutamine and Penicillin-Streptomycin (at 50 μg streptomycin/ml, Gibco BRL). THP-1 cells were washed in HBSS (lacking Ca^2+ and Mg^2+)+1 mg/ml BSA and resuspended in the same buffer at a density of 3×10^6 cells/ml. The cells were then loaded with […] FURA-2/AM for 30 min at 37° C., washed twice in HBSS, and resuspended at 1×10^6 cells/ml. THP-1 cell suspension (0.9 ml) was added to a 5 ml disposable cuvette containing a magnetic stirrer bar and 2.1 ml of prewarmed (37° C.) HBSS containing 1 mg/ml BSA, 1 mM MgCl2 and 2 mM CaCl2. The cuvette was placed in a fluorescence spectrophotometer (Perkin Elmer, Norwalk, Conn.) and preincubated for 4 min at 37° C. with stirring. Fluorescence was recorded over 70 sec and cells were stimulated by addition of hMCP-1 to the cuvette after 10 sec. [Ca^2+]i was measured by excitation at 340 nm and 380 nm alternatively and subsequent measurement of the intensity of the fluorescence emission at 510 nm. […] Rmax is the maximal fluorescence ratio determined after addition of […] Ionomycin, Rmin is the minimal ratio determined by the subsequent addition of a Ca^2+ free solution containing 5 mM EGTA, and Sf2/Sb2 is the ratio of fluorescence value at 380 nm excitation determined at Rmin and Rmax, respectively. […]

[3] = system: THP-1 cells; assay: hMCP-1 mediated chemotaxis of THP-1 cells; type: cell-based, human; conditions: 2 h at 37° C.
Procedure: In vitro chemotaxis assays were performed using the human monocytic cell line THP-1. Cell migration through polycarbonate membranes was measured by enumerating those passing through either directly by Coulter counting or indirectly by use of a colourimetric viability assay measuring the cleavage of a tetrazolium salt by the mitochondrial respiratory chain (Scudiero D. A. et al. 1988, Cancer Res., 48, 4827-4833). […]
In an alternative form of the above assay, fluorescently tagged cells can be used in order to assist in end point detection. […] At the end of the incubation, cells are washed off the upper face of the filter with phosphate buffered saline, the filter removed from the plate and the number of cells attracted to either the underside of the filter or the lower well estimated by reading fluorescence at 485 nm excitation, 538 nm emission wavelengths (fmax, Molecular Devices). The data was input into a spreadsheet, corrected for any random migration in the absence of chemoattractant and the average fluorescence values, standard error of the mean, percentage inhibition and IC50 of compounds under test and significance tests can be calculated. […]

- IC50 ([1]; cold competition of unlabeled MCP-1 with 100 pM 125I-labeled MCP-1): 0.11 nM
- Kd ([1]; equilibrium binding, room temperature): 0.12 nM
- EC50 [2]: ~2 nM
Substance: MCP-1: Human Monocyte Chemoattractant Protein-1, a C—C chemokine; ligand of the CCR2 receptor
- concentration of maximal cell migration (biphasic response) [3]: 0.5-1.0 nm

Reference: patent US6984657B1, “Indole derivatives as MCP-1 receptor antagonists” (AstraZeneca AB, priority 2000, dated 2006)
